Laboratory results taken from PMC7962591 (Cell, 2021).

B1: COV2-2676 (human mAb, recombinant IgG1) (antibody, V domains shown)
VH: QVQLVQSGAEVKKPGSSVKVSCKASGGTFSSYAINWVRQAPGQGLEWMGGIIPIFGTANYAQKFQGRVTFTADESTSTAYMEVSSLRSEDTAVYYCARSCGDCYSADLDFWGQGTLVTVSS
VL: EIVLTQSPATLSLSPGERATLSCRASQSISSFLAWYQQKPGQAPRLLIYDASNRATGIPARFSGSGSGTDFTLTISSLEPEDFAVYYCQRRSNWPPFTFGPGTKVDIK
B2: COV2-2489 (human mAb, recombinant IgG1) (antibody, V domains shown)
VH: QLQLQESGPGLVKPSETLSLTCTVSGGSISSTTYYWGWIRQPPGKGLEWIASIYYSGSTYYNPSLKSRLTVSVDTSKNQFSLKLSSVTAADTAVYYCARQWKWFGEAWYFDLWGRGTLVTVSS
VL: not shown

Molecular target: SARS-CoV-2 (strain Wuhan-Hu-1) spike protein, wild type, full-length expression construct (SARS-CoV-2, Wuhan-Hu-1, UniProt P0DTC2)
Assay: flow cytometry on cells

| Binder | binding result |
| --- | --- |
| B1 | binds |
| B2 | binds |
